Read-outs that look alike come from different tables or passages of the source.
Key:
[1] = target: T1, human DLL4 overexpressed on cells (human, UniProt Q9NR61 27-685); assay: FACS titration on HEK293-hDLL4 cells, MCF
T1 construct: full length human DLL4 on CHO or HEK293 cells; also called CHO-hDLL4; CHO-hDII4
Method: In order to determine the cynomologus cross-reactivity of the VHHs, a FACS binding experiment is performed. Cynomolgus DII4 expressing HEK293 cells (transient or stable transfection) are used for a titration binding experiment of the VHHs. After a 30 minutes incubation on ice, all samples are washed and detection is performed by applying anti-c-myc˜Alexa647 (Santa Cruz Biotechnology, Santa Cruz, Calif., USA). Human and mouse DII4 overexpressing HEK293 cells are taken as reference. The mean MCF value is determined on the FACS Array and used for calculation of the EC₅₀ value (see FIG. 9 A-E).

[2] = target: T2, mouse DLL4 overexpressed on cells (mouse, UniProt Q9JI71 27-686); assay: competitive FMAT, hNotch1-Fc on CHO-mDLL4
T2 construct: whole, on cells; also called CHO-mDLL4; CHO-mDII4
T2 sequence (Q9JI71 27-686): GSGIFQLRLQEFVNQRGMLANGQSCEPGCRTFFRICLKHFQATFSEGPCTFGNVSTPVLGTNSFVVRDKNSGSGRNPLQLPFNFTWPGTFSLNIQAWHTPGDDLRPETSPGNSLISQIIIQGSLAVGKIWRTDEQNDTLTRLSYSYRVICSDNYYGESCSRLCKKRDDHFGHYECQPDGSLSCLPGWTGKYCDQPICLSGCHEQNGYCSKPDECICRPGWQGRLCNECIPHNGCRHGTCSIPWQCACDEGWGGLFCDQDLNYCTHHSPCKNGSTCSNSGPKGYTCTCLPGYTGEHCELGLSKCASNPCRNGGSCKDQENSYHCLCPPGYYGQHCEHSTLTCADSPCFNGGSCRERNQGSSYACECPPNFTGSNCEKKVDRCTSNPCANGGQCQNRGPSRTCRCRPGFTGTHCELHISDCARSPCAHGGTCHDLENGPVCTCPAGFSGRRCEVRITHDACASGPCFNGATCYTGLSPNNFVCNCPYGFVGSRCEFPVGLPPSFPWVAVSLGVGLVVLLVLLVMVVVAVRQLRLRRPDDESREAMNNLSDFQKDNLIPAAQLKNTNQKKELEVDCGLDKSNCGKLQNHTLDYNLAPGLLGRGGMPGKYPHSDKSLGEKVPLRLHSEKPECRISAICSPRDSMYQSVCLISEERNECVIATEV

recombinant mouse DLL4 = target: T3, recombinant mouse DLL4 (mouse, UniProt Q9JI71 27-532); assay: Biacore, VHH on chip, 200 nM DLL4 sample injected
T3 construct: extracellular domain; also called rmDLL4; mDLL4
T3 sequence (Q9JI71 27-532): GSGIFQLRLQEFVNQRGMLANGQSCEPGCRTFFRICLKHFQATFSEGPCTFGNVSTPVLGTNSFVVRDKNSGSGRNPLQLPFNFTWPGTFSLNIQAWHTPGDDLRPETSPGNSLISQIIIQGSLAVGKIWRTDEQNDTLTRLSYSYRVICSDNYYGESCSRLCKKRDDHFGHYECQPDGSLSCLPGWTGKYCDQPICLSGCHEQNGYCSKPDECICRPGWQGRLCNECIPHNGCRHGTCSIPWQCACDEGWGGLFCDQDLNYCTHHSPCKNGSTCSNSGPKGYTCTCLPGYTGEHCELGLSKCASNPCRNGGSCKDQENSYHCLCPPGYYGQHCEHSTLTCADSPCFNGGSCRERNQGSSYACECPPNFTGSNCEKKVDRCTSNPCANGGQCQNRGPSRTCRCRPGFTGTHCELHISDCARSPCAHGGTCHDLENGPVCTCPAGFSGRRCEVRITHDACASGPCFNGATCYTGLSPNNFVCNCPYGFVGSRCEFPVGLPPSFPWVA

[3] = target: T4, cynomolgus DLL4 overexpressed on cells (cynomolgus, UniProt Q9NR61 27-685 (human entry)); assay: FACS titration on HEK293-cDLL4 cells, MCF
T4 construct: also called cyno DII4; cDLL4
T4 chain: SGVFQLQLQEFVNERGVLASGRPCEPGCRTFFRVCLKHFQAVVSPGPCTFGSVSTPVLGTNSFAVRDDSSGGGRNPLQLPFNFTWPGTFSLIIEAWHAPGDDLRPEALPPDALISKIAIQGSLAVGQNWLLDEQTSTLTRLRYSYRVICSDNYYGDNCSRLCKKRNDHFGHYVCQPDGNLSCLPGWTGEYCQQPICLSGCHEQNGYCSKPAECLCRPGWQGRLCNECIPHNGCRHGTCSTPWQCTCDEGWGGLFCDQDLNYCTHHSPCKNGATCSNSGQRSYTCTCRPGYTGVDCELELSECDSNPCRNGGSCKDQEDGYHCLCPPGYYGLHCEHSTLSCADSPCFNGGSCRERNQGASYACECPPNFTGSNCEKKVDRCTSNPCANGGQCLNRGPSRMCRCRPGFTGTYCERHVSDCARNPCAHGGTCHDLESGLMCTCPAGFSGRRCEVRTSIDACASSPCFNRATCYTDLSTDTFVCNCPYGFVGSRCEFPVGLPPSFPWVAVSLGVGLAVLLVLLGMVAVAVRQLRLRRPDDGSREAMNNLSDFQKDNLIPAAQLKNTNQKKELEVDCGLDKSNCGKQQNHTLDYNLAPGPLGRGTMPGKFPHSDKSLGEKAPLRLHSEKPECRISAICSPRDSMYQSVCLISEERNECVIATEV
Method in brief: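 HEK293 cells overexpressing DLL4 (transient or stable) were incubated with VHH titrations for 30 min on ice. After washing, binding was detected with anti-c-myc-Alexa647 by flow cytometry, and the mean MCF was used to calculate EC50.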

recombinant human DLL4 = target: T5, recombinant human DLL4 (human, UniProt Q9NR61 25-522); assay: Biacore off-rate, periplasmic extract
T5 construct: also called rhDLL4; hDLL4

[4] = target: T6, recombinant human DLL4 (C-terminally His-tagged extracellular domain, R&D Systems) (human, UniProt Q9NR61 25-522, biotinylated in the competition ELISA); assay: binding ELISA on recombinant human DLL4, OD 450 nm
T6 construct: also called rhDLL4; hDLL4

[5] = target: T7, recombinant mouse DLL4 (C-terminally His-tagged extracellular domain, R&D Systems) (mouse, UniProt Q9JI71 27-532); assay: ProteOn off-rate screen, periplasmic extract, coated mouse DLL4
T7 construct: extracellular domain; also called rmDLL4; mDLL4
T7 sequence (Q9JI71 27-532): as the sequence (Q9JI71 27-532) above
Method: (§1) In a first cycle, amino acid substitutions are introduced randomly in both framework (FW) and complementary determining regions (CDR) using the error-prone PCR method. […] After a polish step, PCR products are inserted via unique restriction sites into a vector designed to facilitate phage display of the VHH library. Consecutive rounds of in-solution selections are performed using decreasing concentrations of biotinylated recombinant human DLL4 (biot-rhDLL4) and trypsin elutions. Affinity-driven selections in a third round using cold rhDLL4 (at least 100× excess over biot-rhDLL4) are also performed. No selections on murine DLL4 are included as (conservation of) cross-reactivity is assessed at the screening level. Individual mutants are produced as recombinant protein using an expression vector derived from pUC119, which contains the LacZ promoter, a resistance gene for ampicillin, a multiple cloning site and an ompA leader sequence (pAX50). E. coliTG1 cells are transformed with the expression vector library and plated on agar plates (LB+Amp+2% glucose). Single colonies are picked from the agar plates and grown in 1 mL 96-deep-well plates. VHH expression is induced by adding IPTG (1 mM). Periplasmic extracts (in a volume of ˜80 uL) are prepared according to standard methods and screened for binding to recombinant human and mouse DII4 in a ProteOn (BioRad, Hercules, Calif., USA) off-rate assay. In brief, a GLC ProteOn Sensor chip is coated with recombinant human DII4 on the “ligand channels” L2 and L4 (with L1/L3 as reference channel), while “ligand channels” […] is coated with mouse DII4. Periplasmic extract of affinity-matured clones is diluted 1/10 and injected across the “analyte channels” A1-A6. An average off-rate is calculated of the wild type clones present in the plate and served as a reference to calculate off-rate improvements.

[6] = target: T6, recombinant human DLL4 (C-terminally …); assay: ProteOn off-rate screen, periplasmic extract, coated human DLL4
Method: as §1

[7] = target: T7, recombinant mouse DLL4 (C-terminally …); assay: binding ELISA on coated recombinant mouse DLL4 (Example 5.8, Example 7), OD 450 nm
[8] = target: T7, recombinant mouse DLL4 (C-terminally …); assay: as above; remark: listed apart in the source
human Jagged-1 (Alexis) = target: T8, human Jagged-1 (Alexis) (human, UniProt P78504 34-1067, limits assumed); assay: binding ELISA on coated human Jagged-1 (Example 5.8, Example 7), OD 405 nm
T8 construct: also called hJag-1; hJAG1

B1: DLLBII56A09 (VHH)
VHH: EVQLVESGGGLVQPGGSLRLSCAASGFTFDDYAIGWFRQAPGKEPEGISCISSSGGITYYADSVKGRFTTSRDNAKNTVYLQMNSLKPEDTAVYYCATPGIAACRGIHYTGQGTQVTVSS
notes: also called 56A9; DLLBII56A9
EC50 (read off the curve) [1]: ~4 nM | IC50 [2]: 15 nM | Binding (RU) (recombinant mouse DLL4): 389 RU | koff (recombinant mouse DLL4): 0.0019 s⁻¹ | EC50 (read off the curve) [3]: ~3 nM | koff (recombinant human DLL4): 0.0011 s⁻¹

B2: DLLBII101G08 (VHH)
VHH: EVQLVESGGGLVQAGGSLRLSCAASGRTFSSYAMAWFRQAPGKEREFVAAIRWSGGTAYYADSVQGRFTISRDNAKNTVYLQMNSLKPEDTAVYYCANRAADTRLGPYEYDYWGQGTQVTVSS
notes: also called 101G8; DLLBII101G8
EC50 (read off the curve) [1]: ~30 nM | IC50 [2]: 92.1 nM | Binding (RU) (recombinant mouse DLL4): 502 RU | koff (recombinant mouse DLL4): 0.006 s⁻¹ | EC50 (read off the curve) [3]: ~9 nM | koff (recombinant human DLL4): 0.0021 s⁻¹

B3: DLLBII115A05 (VHH)
VHH: EVQLVESGGGLVQPGGSLRLSCAASGFTFGSYDMSWVRRSPGKGPEWVSSINSGGGSTYYADFVKGRFTISRDNAKNTLYLQMNSLKPEDTAVYYCAADRYIRARQGDYWGAYEYDYWGQGTQVTVSS
notes: also called 115A5; DLLBII115A5
EC50 (read off the curve) [1]: ~20 nM | IC50 [2]: 43 nM | Binding (RU) (recombinant mouse DLL4): 344 RU | koff (recombinant mouse DLL4): 0.0065 s⁻¹ | EC50 (read off the curve) [3]: ~4 nM | koff (recombinant human DLL4): 0.0031 s⁻¹

B4: DLLBII101G08 (VHH, not shown: small tags and cut ends)
VHH: EVQLVESGGGLVQAGGSLRLSCAASGRTFSSYAMAWFRQAPGKEREFVAAIRWSGGTAYYADSVQGRFTISRDNAKNTVYLQMNSLKPEDTAVYYCANRAADTRLGPYEYDYWGQGTQVTVSS
notes: parent VHH; also called 101G08 (wt); 101G8
EC50 (read off the curve) [4]: ~4 nM | fold (off-rate vs DLLBII101G08) [5]: 1 fold | koff [5]: 0.0067 s⁻¹ | fold (off-rate vs DLLBII101G08) [6]: 1 fold | koff [6]: 0.0022 s⁻¹

B5: DLLBII129B05 (VHH, not shown: small tags and cut ends)
VHH: EVQLVESGGGLVQAGGSLRLSCAASGRTFSSYAMAWYRQAPGKEREYVAAIRWSGGTAYYADSVQGRFTISRDNAKNTVYLQMNSLKPEDTAVYYCANRAPDTRLAPYEYDHWGQGTQVTVSS
EC50 (read off the curve) [4]: ~0.7 nM | fold (off-rate vs DLLBII101G08) [5]: 20 fold | koff [5]: 0.00034 s⁻¹ | EC50 (read off the curve) [7]: ~0.8 nM | fold (off-rate vs DLLBII101G08) [6]: 24 fold | koff [6]: 9.3e-05 s⁻¹

B6: DLLBII129D08 (VHH, not shown: small tags and cut ends)
VHH: EVQLVESGGGLVQAGGSLRLSCAASGRTFSSYAMAWYRQAPGKEREYVAAIRWSGGTAYYADSVQGRFTISRDNAKNTVYLQMNSLKPEDTAVYYCANRAPDTRLEPYLYDYWGQGTQVTVSS
EC50 (read off the curve) [4]: ~0.7 nM | fold (off-rate vs DLLBII101G08) [5]: 35 fold | koff [5]: 0.00019 s⁻¹ | EC50 (read off the curve) [7]: ~0.8 nM | fold (off-rate vs DLLBII101G08) [6]: 38 fold | koff [6]: 5.9e-05 s⁻¹

B7: DLLBII129E11 (VHH, not shown: small tags and cut ends)
VHH: EVQLVESGGGLVQAGGSLRLSCAASGRTFSSYAMAWYRQAPGKEREYVAAIRWSGGTAYYADSVQGRFTISRDNAKNTVYLQMNSLKPEDTAVYYCANRAPDTRLRPYLYDYWGQGTQVTVSS
EC50 (read off the curve) [4]: ~0.7 nM | fold (off-rate vs DLLBII101G08) [5]: 26 fold | koff [5]: 0.00025 s⁻¹ | EC50 (read off the curve) [7]: ~0.8 nM | fold (off-rate vs DLLBII101G08) [6]: 28 fold | koff [6]: 8e-05 s⁻¹

B8: DLLBII015 (VHH, not shown: small tags and cut ends)
VHH: EVQLVESGGGLVQPGGSLRLSCAASGFTIGSYDMSWVRRSPGKGPEWVSAINSGGGSTYYADYVKGRFTISRDNAKNTLYLQMNSLKPEDTAVYYCAADRYIWARQGEYWGAYAYDYWGQGTQVTVSS
EC50 (read off the curve) [8]: ~1 nM | binding result (human Jagged-1 (Alexis)): no binding (tested: log[M] -6.1 (about 8e-7 M))

B9: DLLBII133A09 (VHH, not shown: small tags and cut ends)
VHH: EVQLVESGGGLVQPGGSLRLSCAASGFTFGSYDMSWVRRSPGKGPEWVSAINSGGGSTYYADYVKGRFTISRDNAKNTLYLQMNSLKPEDTAVYYCAADRYIWARQGEYWGAYAYDYWGQGTQVTVSS
EC50 (read off the curve) [8]: ~1 nM | binding result (human Jagged-1 (Alexis)): no binding (tested: log[M] -6.1 (about 8e-7 M))

B10: DLLBII133G05 (VHH, not shown: small tags and cut ends)
VHH: EVQLVESGGGLVQPGGSLRLSCAASGFTFGSYDMSWVRRSPGKGPEWVSAINSGGGSTYYTDYVKGRFTISRDNAKNTLYLQMNSLKPEDTAVYYCAADRYIWARQGEYWGAYAYDYWGQGTQVTVSS
EC50 (read off the curve) [8]: ~0.4 nM | binding result (human Jagged-1 (Alexis)): no binding (tested: log[M] -6.1 (about 8e-7 M))

B11: DLLBII136C07 (VHH, not shown: small tags and cut ends)
VHH: EVQLVESGGGLVQPGGSLRLSCAASGFTFGSYDMSWVRRSPGKGPEWVSSINSGGGSTYYADYVKGRFTISRDNAKNTLYLQMNSLKPEDTAVYYCAADRYIWARQGEYWGAYEYDYWGQGTQVTVSS
EC50 (read off the curve) [8]: ~1 nM | binding result (human Jagged-1 (Alexis)): no binding (tested: log[M] -6.1 (about 8e-7 M))

— US20140120095A1 (Boehringer Ingelheim, published 2014)
